What all share (experiment): ITC
Background: Isothermal titration calorimetry measures the heat released or taken up as one component is titrated into another.

In test [1] the target is AnkG exZZUD (rat) (UniProt O70511).
Test [2] deals with AnkB exZZU R1029E (human).
Test [3] addresses AnkB exZZU F968A (human).
Test [4] concerns the target AnkB exZZU I964Q (human).
The target of test [5] is AnkB exZZU (extension-ZU5N-ZU5C-UPA, aa 951-1443) (human).
Test [6] concerns the target AnkB ZU5N-ZU5C-UPA-DD tandem (ZZUD, aa 966-1535) (human).
The target of test [7] is AnkB exZZU T1324D (human).

Chain of UniProt O70511 (O70511 whole entry): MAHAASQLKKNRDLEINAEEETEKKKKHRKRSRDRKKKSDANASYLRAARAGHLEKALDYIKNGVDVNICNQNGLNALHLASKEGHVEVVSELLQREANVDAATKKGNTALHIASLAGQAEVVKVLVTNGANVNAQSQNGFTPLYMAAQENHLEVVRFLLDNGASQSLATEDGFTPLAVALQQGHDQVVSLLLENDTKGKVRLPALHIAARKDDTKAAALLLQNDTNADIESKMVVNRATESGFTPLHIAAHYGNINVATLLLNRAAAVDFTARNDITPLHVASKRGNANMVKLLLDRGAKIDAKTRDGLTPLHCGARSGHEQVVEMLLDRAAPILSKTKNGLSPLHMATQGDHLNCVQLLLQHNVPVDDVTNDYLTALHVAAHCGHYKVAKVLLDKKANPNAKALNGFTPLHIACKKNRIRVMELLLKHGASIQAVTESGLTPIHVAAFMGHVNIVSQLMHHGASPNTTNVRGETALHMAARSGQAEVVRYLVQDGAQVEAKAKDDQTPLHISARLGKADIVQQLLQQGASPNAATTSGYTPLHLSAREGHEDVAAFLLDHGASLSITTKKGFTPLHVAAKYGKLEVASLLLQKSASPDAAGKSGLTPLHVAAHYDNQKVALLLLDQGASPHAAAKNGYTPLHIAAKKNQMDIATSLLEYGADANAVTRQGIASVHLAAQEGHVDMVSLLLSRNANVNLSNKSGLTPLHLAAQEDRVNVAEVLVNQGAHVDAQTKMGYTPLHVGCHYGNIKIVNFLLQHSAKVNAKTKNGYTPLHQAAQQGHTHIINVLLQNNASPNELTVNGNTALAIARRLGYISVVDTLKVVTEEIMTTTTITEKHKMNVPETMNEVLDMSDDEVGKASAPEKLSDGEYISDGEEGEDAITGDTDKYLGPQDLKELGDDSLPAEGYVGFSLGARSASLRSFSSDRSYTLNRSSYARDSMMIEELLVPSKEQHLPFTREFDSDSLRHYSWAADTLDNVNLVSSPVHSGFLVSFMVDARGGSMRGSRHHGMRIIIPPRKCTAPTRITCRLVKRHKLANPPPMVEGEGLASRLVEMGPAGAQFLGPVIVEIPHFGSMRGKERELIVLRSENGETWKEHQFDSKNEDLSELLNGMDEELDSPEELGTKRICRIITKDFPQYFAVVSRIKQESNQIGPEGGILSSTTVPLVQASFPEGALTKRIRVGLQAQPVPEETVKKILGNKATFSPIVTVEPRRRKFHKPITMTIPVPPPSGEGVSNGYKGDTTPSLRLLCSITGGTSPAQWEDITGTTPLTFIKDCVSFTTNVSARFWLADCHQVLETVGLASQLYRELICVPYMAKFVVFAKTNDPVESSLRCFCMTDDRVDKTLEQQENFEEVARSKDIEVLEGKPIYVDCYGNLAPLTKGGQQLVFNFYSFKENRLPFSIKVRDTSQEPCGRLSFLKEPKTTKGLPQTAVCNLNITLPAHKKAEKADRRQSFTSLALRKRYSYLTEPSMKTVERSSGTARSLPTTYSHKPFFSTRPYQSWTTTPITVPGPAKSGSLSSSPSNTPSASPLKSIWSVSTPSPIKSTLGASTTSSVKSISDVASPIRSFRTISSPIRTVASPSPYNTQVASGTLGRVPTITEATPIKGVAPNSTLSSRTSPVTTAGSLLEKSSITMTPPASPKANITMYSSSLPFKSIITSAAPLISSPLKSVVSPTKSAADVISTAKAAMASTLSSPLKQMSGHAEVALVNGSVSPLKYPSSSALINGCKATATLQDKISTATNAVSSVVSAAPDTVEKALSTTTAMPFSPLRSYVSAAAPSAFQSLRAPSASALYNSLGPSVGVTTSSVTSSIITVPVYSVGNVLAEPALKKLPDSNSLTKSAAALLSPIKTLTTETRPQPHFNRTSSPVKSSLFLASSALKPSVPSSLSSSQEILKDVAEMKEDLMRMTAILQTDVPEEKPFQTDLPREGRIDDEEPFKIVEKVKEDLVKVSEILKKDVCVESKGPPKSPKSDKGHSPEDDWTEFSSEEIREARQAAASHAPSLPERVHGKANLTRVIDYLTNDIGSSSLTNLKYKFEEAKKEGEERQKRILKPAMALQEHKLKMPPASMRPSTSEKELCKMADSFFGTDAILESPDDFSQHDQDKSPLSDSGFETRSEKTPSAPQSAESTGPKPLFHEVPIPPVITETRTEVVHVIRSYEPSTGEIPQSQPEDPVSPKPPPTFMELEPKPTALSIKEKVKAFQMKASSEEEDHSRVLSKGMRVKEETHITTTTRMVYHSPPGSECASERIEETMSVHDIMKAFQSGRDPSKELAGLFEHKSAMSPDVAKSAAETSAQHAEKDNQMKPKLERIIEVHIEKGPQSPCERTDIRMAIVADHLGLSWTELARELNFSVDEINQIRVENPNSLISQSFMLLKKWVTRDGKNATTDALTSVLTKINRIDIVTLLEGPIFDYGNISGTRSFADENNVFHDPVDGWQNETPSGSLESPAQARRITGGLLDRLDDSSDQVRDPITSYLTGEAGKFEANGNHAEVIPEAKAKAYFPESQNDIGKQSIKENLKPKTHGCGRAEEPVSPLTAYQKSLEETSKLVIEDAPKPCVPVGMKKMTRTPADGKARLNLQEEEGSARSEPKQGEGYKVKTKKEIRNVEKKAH

“β2-spectrin R13-16 (from UniProt Q62261 1-2363) (domain or fragment)” came in with a fold stronger binding than AnkG ZZUD without the extension in test [1] greater than 10 fold.

Turning to “β2-spectrin spectrin repeats 13-15 (R13-15) (domain or fragment)”, the fold decrease of binding against wild-type AnkB exZZU in test [2] is 5 fold; in test [3], greater than 10 fold; in test [4], 4 fold. The results for the Kd in test [5] and in test [6] were 200 nM and 4900 nM, respectively.

In test [7], “β4-spectrin spectrin repeats 13-15 (R13-15) (domain or fragment)” displayed a fold decrease of binding against wild-type AnkB exZZU of 5 fold.

These data come from doi:10.1101/2020.03.04.976142.
